Measured values published in patent US20110237779A1 (Genentech, published 2011).
Numbering of substitutions follows the chain as printed. In names and notes the source's numbering stands.

B1: D3 direct hypervariable region graft on the acceptor human consensus framework (Fab displayed on phage) (Fab, V domains shown)
VH: EVQLVESGGGLVQPGGSLRLSCAASGFNIKDYYMHWVRQAPGKGLEWVGWIDPENGNTIYDPKFQDRFTISADTSKNTAYLQMNSLRAEDTAVYYCARDTAAYFDYWGQGTLVTVSS
VL: DIQMTQSPSSLSASVGDRVTITCKASRDIKSYLSWYQQKPGKAPKLLIYYATSLADGVPSRFSGSGSGTDFTLTISSLQPEDFATYYCLQHGESPFTFGQGTKVEIK
notes: Monovalent Fab-g3 phage display: light chain, and VH-CH1 followed by the minor phage coat protein P3; Kabat numbering; No framework changes; also called D3 grafted variant; D3 graft
B2: D3 library clone, CDR-L3 LSDGSSPFT (Fab, V domains shown)
VH: B1 VH
VL: B1 VL with Q90S, H91D, E93S
notes: Changes against the D3 direct graft (Kabat): VL Q90S, H91D, E93S; copies: 1 + 1
B3: D3 library clone, CDR-L2 YETGEPE (Fab, V domains shown)
VH: B1 VH
VL: B1 VL with A51E, S53G, L54E, A55P, D56E
notes: Changes against the D3 direct graft (Kabat): VL A51E, S53G, L54E, A55P, D56E; copies: 1 + 1
B4: D3 library clone, CDR-L2 YAPRRAR (Fab, V domains shown)
VH: B1 VH
VL: B1 VL with T52P, S53R, L54R, D56R
notes: Changes against the D3 direct graft (Kabat): VL T52P, S53R, L54R, D56R; Siblings 2; copies: 1 + 1
B5: D3 library clone, CDR-L2 RGTSLFE, VL K24E, D28V, Y32F (Fab, V domains shown)
VH: B1 VH
VL: B1 VL with K24E, D28V, Y32F, Y50R, A51G, A55F, D56E
notes: Changes against the D3 direct graft (Kabat): VL K24E, D28V, Y32F, Y50R, A51G, A55F, D56E; copies: 1 + 1
B6: D3 library clone, CDR-L2 YATGETD (Fab, V domains shown)
VH: B1 VH
VL: B1 VL with S53G, L54E, A55T
notes: Changes against the D3 direct graft (Kabat): VL S53G, L54E, A55T; Siblings 2; copies: 1 + 1
B7: D3 library clone, CDR-L2 YEGSGKR (Fab, V domains shown)
VH: B1 VH
VL: B1 VL with A51E, T52G, L54G, A55K, D56R
notes: Changes against the D3 direct graft (Kabat): VL A51E, T52G, L54G, A55K, D56R; Siblings 8; copies: 1 + 1
B8: D3 library clone, CDR-L2 YTTGPVD (Fab, V domains shown)
VH: B1 VH
VL: B1 VL with A51T, S53G, L54P, A55V
notes: Changes against the D3 direct graft (Kabat): VL A51T, S53G, L54P, A55V; copies: 1 + 1
B9: D3 library clone, CDR-L2 YAPGPAD (Fab, V domains shown)
VH: B1 VH
VL: B1 VL with T52P, S53G, L54P
notes: Changes against the D3 direct graft (Kabat): VL T52P, S53G, L54P; copies: 1 + 1
B10: D3 library clone, CDR-L2 YTAGPSD (Fab, V domains shown)
VH: B1 VH
VL: B1 VL with A51T, T52A, S53G, L54P, A55S
notes: Changes against the D3 direct graft (Kabat): VL A51T, T52A, S53G, L54P, A55S; copies: 1 + 1
B11: D3 library clone, CDR-L2 YEPGLAD (Fab, V domains shown)
VH: B1 VH
VL: B1 VL with A51E, T52P, S53G
notes: Changes against the D3 direct graft (Kabat): VL A51E, T52P, S53G; copies: 1 + 1
B12: D3 library clone, CDR-L1 NASLVINRWLS (Fab, V domains shown)
VH: B1 VH
VL: B1 VL with K24N, R27L, D28V, K30N, S31R, Y32W
notes: Changes against the D3 direct graft (Kabat): VL K24N, R27L, D28V, K30N, S31R, Y32W; copies: 1 + 1
B13: D3 library clone, CDR-L3 LQDGESPFT, I58F, N82aI, D95N (Fab, V domains shown)
VH: B1 VH with I59F, N84I, D99N
VL: B1 VL with H91D
notes: Changes against the D3 direct graft (Kabat): VL H91D; VH I58F, N82aI, D95N; copies: 1 + 1
B14: D3 library clone, CDR-L2 YVPWTAD (Fab, V domains shown)
VH: B1 VH
VL: B1 VL with A51V, T52P, S53W, L54T
notes: Changes against the D3 direct graft (Kabat): VL A51V, T52P, S53W, L54T; copies: 1 + 1
B15: D3 library clone, CDR-L2 YESGPAD (Fab, V domains shown)
VH: B1 VH
VL: B1 VL with A51E, T52S, S53G, L54P
notes: Changes against the D3 direct graft (Kabat): VL A51E, T52S, S53G, L54P; Siblings 2; copies: 1 + 1
B16: D3 library clone, CDR-L2 DAIGLAD (Fab, V domains shown)
VH: B1 VH
VL: B1 VL with Y50D, T52I, S53G
notes: Changes against the D3 direct graft (Kabat): VL Y50D, T52I, S53G; copies: 1 + 1
B17: D3 library clone, CDR-L2 YAPSLAD (Fab, V domains shown)
VH: B1 VH
VL: B1 VL with T52P
notes: Change against the D3 direct graft (Kabat): VL T52P; copies: 1 + 1
B18: D3 library clone, CDR-L3 LQDGESPFT (Fab, V domains shown)
VH: B1 VH
VL: B1 VL with H91D
notes: Change against the D3 direct graft (Kabat): VL H91D; Siblings 5; copies: 1 + 1
B19: D3 library clone, CDR-L2 YETGWAE (Fab, V domains shown)
VH: B1 VH
VL: B1 VL with A51E, S53G, L54W, D56E
notes: Changes against the D3 direct graft (Kabat): VL A51E, S53G, L54W, D56E; copies: 1 + 1
B20: D3 library clone, CDR-L2 YAPGLAD (Fab, V domains shown)
VH: B1 VH
VL: B1 VL with T52P, S53G
notes: Changes against the D3 direct graft (Kabat): VL T52P, S53G; Siblings 2; copies: 1 + 1
B21: D3 library clone, CDR-L1 KGSRDTTSFVS (Fab, V domains shown)
VH: B1 VH
VL: B1 VL with A25G, I29T, K30T, Y32F, L33V
notes: Changes against the D3 direct graft (Kabat): VL A25G, I29T, K30T, Y32F, L33V; copies: 1 + 1
B22: D3 library clone, CDR-L2 YETGPTD (Fab, V domains shown)
VH: B1 VH
VL: B1 VL with A51E, S53G, L54P, A55T
notes: Changes against the D3 direct graft (Kabat): VL A51E, S53G, L54P, A55T; copies: 1 + 1
B23: D3 library clone, CDR-L1 KGQRVLNSWLS (Fab, V domains shown)
VH: B1 VH
VL: B1 VL with A25G, S26Q, D28V, I29L, K30N, Y32W
notes: Changes against the D3 direct graft (Kabat): VL A25G, S26Q, D28V, I29L, K30N, Y32W; copies: 1 + 1
B24: D3 library clone, CDR-L1 KGSGYIKHFVS (Fab, V domains shown)
VH: B1 VH
VL: B1 VL with A25G, R27G, D28Y, S31H, Y32F, L33V
notes: Changes against the D3 direct graft (Kabat): VL A25G, R27G, D28Y, S31H, Y32F, L33V; Siblings 2; copies: 1 + 1

The binders below were run against T1, human tissue factor (human, UniProt P13726 33-251, limits assumed) (assay: phage ELISA, Fab on phage, competition with antigen in solution).
T1 construct: construct not described; also called TF

Question: With B1 as the binder, how does the IC50 read?
Answer: 20 nM

The binders below were run against T1, human tissue factor (assay: phage ELISA, solution competition: Fab-phage incubated with serially diluted TF, unbound phage captured on TF-coated wells; IC50 used as affinity estimate).

Question: Which IC50 does the source give for B1 here?
Answer: 19 nM

Question: B2 was tested. Which IC50 did it give?
Answer: 15 nM

Question: B3 was tested. Which IC50 did it give?
Answer: 11 nM

Question: B4 was tested. Which IC50 did it give?
Answer: 11 nM

Question: For B5, which IC50 is on record?
Answer: 10 nM

Question: For B6, which IC50 is on record?
Answer: 16 nM

Question: How did the IC50 turn out when B7 was run?
Answer: 12 nM

Question: B8 was tested. Which IC50 did it give?
Answer: 21 nM

Question: With B9 as the binder, how does the IC50 read?
Answer: 10 nM

Question: With B10 as the binder, how does the IC50 read?
Answer: 16 nM

Question: For B11, which IC50 is on record?
Answer: 7 nM

Question: With B12 as the binder, how does the IC50 read?
Answer: 16 nM

Question: Which IC50 does the source give for B13 here?
Answer: 8 nM

Question: How did the IC50 turn out when B14 was run?
Answer: 10 nM

Question: B15 was tested. Which IC50 did it give?
Answer: 8 nM

Question: B16 was tested. Which IC50 did it give?
Answer: 17 nM

Question: Which IC50 does the source give for B17 here?
Answer: 4 nM

Question: For B18, which IC50 is on record?
Answer: 13 nM

Question: How did the IC50 turn out when B19 was run?
Answer: 10 nM

Question: Which IC50 does the source give for B20 here?
Answer: 8 nM

Question: With B21 as the binder, how does the IC50 read?
Answer: 19 nM

Question: For B22, which IC50 is on record?
Answer: 9 nM

Question: With B23 as the binder, how does the IC50 read?
Answer: 21 nM

Question: For B24, which IC50 is on record?
Answer: 9 nM
